Results taken from the supplement of paper PMC9112550, “Optimization of the antimicrobial peptide Bac7 by deep mutational scanning” (BMC Biology, 2022).

Test system: Escherichia coli TOP10
Test: shrunken log2 fold change of peptide-encoding DNA abundance (4.5 h post-induction vs induction); higher = less antimicrobial activity (less host growth inhibition)
Conditions: time post-induction: 4.5 h; library: site-saturation at positions 5, 18, 19, 20
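Note: peptides expressed intracellularly from a pBAD plasmid library in pooled LB shake-flask culture, induced with 0.3% L-arabinose, DNA abundance read by NGS, three biological replicates, DESeq2 with apeglm shrinkage.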

Sequence	shrunken log2 fold change
RRIRNRPPRLPRPRPRPADNPRP	0.0856
RRIRYRPPRLPRPRPRPNDKPRP	-0.892
RRIRCRPPRLPRPRPRPWYCPRP	-0.248
RRIRTRPPRLPRPRPRPRYHPRP	-0.573
RRIRPRPPRLPRPRPRPIAFPRP	-0.00102
RRIRRRPPRLPRPRPRPHDLPRP	0.22
RRIRPRPPRLPRPRPRPIPKPRP	0.28
RRIRQRPPRLPRPRPRPMKMPRP	0.0133
RRIRWRPPRLPRPRPRPSTEPRP	0.0764
RRIRTRPPRLPRPRPRPAGLPRP	0.0286
RRIRIRPPRLPRPRPRPVTDPRP	-0.00257
RRIRARPPRLPRPRPRPPFNPRP	0.167
RRIRPRPPRLPRPRPRPVHEPRP	0.497
RRIRPRPPRLPRPRPRPPRFPRP	0.557
RRIRGRPPRLPRPRPRPAAIPRP	0.953
RRIRHRPPRLPRPRPRPLSYPRP	-0.895
RRIRARPPRLPRPRPRPGWQPRP	0.0839
RRIRGRPPRLPRPRPRPGRSPRP	0.85
RRIRDRPPRLPRPRPRPFRDPRP	-0.00232
RRIRDRPPRLPRPRPRPFCLPRP	0.0132
RRIRPRPPRLPRPRPRPTFQPRP	0.408
RRIRIRPPRLPRPRPRPYHRPRP	-0.00133
RRIRYRPPRLPRPRPRPKNRPRP	-0.0456
RRIRQRPPRLPRPRPRPWDCPRP	-0.383
RRIRVRPPRLPRPRPRPDCYPRP	-0.15

Sequence	shrunken log2 fold change
RRIRQRPPRLPRPRPRPFIQPRP	-0.321
RRIRGRPPRLPRPRPRPKEHPRP	0.627
RRIRRRPPRLPRPRPRPYVPPRP	-0.241
RRIRIRPPRLPRPRPRPNTMPRP	-0.264
RRIRIRPPRLPRPRPRPMMAPRP	0.0709
RRIRARPPRLPRPRPRPQNIPRP	-0.56
RRIRLRPPRLPRPRPRPFGHPRP	-0.177
RRIRNRPPRLPRPRPRPGYNPRP	-0.198
RRIRSRPPRLPRPRPRPIYSPRP	0.101
RRIRKRPPRLPRPRPRPKKIPRP	0.431
RRIRPRPPRLPRPRPRPGCCPRP	0.343
RRIRERPPRLPRPRPRPESIPRP	0.089
RRIRTRPPRLPRPRPRPKGCPRP	0.00952
RRIRPRPPRLPRPRPRPYNIPRP	-1.66
RRIRYRPPRLPRPRPRPMDDPRP	-0.0837
RRIRERPPRLPRPRPRPMYIPRP	-0.289
RRIRRRPPRLPRPRPRPIEYPRP	-0.124
RRIRIRPPRLPRPRPRPKTKPRP	-0.0929
RRIRYRPPRLPRPRPRPKHQPRP	-0.441
RRIRTRPPRLPRPRPRPMWCPRP	-0.172
RRIRYRPPRLPRPRPRPTCDPRP	-0.424
RRIRKRPPRLPRPRPRPPKRPRP	1.15
RRIRNRPPRLPRPRPRPFCAPRP	-0.0161
RRIRIRPPRLPRPRPRPYHDPRP	-0.28
RRIRQRPPRLPRPRPRPITRPRP	0.0297

Sequence	shrunken log2 fold change
RRIRDRPPRLPRPRPRPHGFPRP	-0.00776
RRIRPRPPRLPRPRPRPYALPRP	-1.08
RRIRCRPPRLPRPRPRPNWCPRP	-0.0555
RRIRHRPPRLPRPRPRPITFPRP	-0.0514
RRIRRRPPRLPRPRPRPGVVPRP	0.281
RRIRERPPRLPRPRPRPAQAPRP	0.073
RRIRDRPPRLPRPRPRPNCPPRP	-0.00232
RRIRERPPRLPRPRPRPIEYPRP	-0.207
RRIRARPPRLPRPRPRPWMLPRP	-0.306
RRIRFRPPRLPRPRPRPQTGPRP	-0.152
RRIRMRPPRLPRPRPRPLFPPRP	0.152
RRIRWRPPRLPRPRPRPTFNPRP	0.00157
RRIRYRPPRLPRPRPRPTDHPRP	-0.254
RRIRERPPRLPRPRPRPKILPRP	-0.0994
RRIRARPPRLPRPRPRPWTCPRP	0.0519
RRIRPRPPRLPRPRPRPHEIPRP	-0.192
RRIRFRPPRLPRPRPRPWMKPRP	-0.0336
RRIRTRPPRLPRPRPRPFTYPRP	-0.00136
RRIRWRPPRLPRPRPRPYIHPRP	-0.405
RRIRYRPPRLPRPRPRPNYNPRP	-1.43
RRIRCRPPRLPRPRPRPGPWPRP	0.422
RRIRARPPRLPRPRPRPGAEPRP	1.1
RRIRIRPPRLPRPRPRPFSPPRP	-0.267
RRIRSRPPRLPRPRPRPYKGPRP	-0.186
RRIRVRPPRLPRPRPRPHPPPRP	0.361

Sequence	shrunken log2 fold change
RRIRKRPPRLPRPRPRPLVPPRP	0.516
RRIRGRPPRLPRPRPRPSWVPRP	0.0128
RRIRRRPPRLPRPRPRPQACPRP	0.0222
RRIRTRPPRLPRPRPRPGQVPRP	-0.0192
RRIRHRPPRLPRPRPRPKTVPRP	-0.154
RRIRCRPPRLPRPRPRPIIPPRP	-0.645
RRIRHRPPRLPRPRPRPPTCPRP	0.0978
RRIRIRPPRLPRPRPRPQATPRP	-0.24
RRIRARPPRLPRPRPRPDVFPRP	0.176
RRIRIRPPRLPRPRPRPPQSPRP	0.0652
RRIRDRPPRLPRPRPRPVYRPRP	-0.0426
RRIRKRPPRLPRPRPRPNILPRP	-0.193
RRIRPRPPRLPRPRPRPRSKPRP	-0.149
RRIRNRPPRLPRPRPRPTHHPRP	-0.0659
RRIRTRPPRLPRPRPRPNCIPRP	-0.288
RRIRGRPPRLPRPRPRPMYNPRP	-0.104
RRIRLRPPRLPRPRPRPMMSPRP	-0.00436
RRIRERPPRLPRPRPRPEPAPRP	0.428
RRIRHRPPRLPRPRPRPKWFPRP	-0.233
RRIRDRPPRLPRPRPRPCDHPRP	-0.0216
RRIRLRPPRLPRPRPRPPPCPRP	0.846
RRIRFRPPRLPRPRPRPCMMPRP	-0.0025
RRIRCRPPRLPRPRPRPPCRPRP	0.609
RRIRPRPPRLPRPRPRPEVTPRP	0.198
RRIRFRPPRLPRPRPRPEDQPRP	0.502

Sequence	shrunken log2 fold change
RRIRFRPPRLPRPRPRPQVIPRP	-0.364
RRIRHRPPRLPRPRPRPPEQPRP	-0.000687
RRIRCRPPRLPRPRPRPGYCPRP	-0.0918
RRIRERPPRLPRPRPRPLCWPRP	-0.0772
RRIRCRPPRLPRPRPRPCLWPRP	0.238
RRIRQRPPRLPRPRPRPDYAPRP	-0.00674
RRIRARPPRLPRPRPRPNCLPRP	-0.111
RRIRWRPPRLPRPRPRPFKLPRP	-0.044
RRIRTRPPRLPRPRPRPKTYPRP	-0.566
RRIRNRPPRLPRPRPRPSCLPRP	-0.4
RRIRPRPPRLPRPRPRPNMRPRP	0.272
RRIRFRPPRLPRPRPRPECPPRP	0.0177
RRIRHRPPRLPRPRPRPRICPRP	0.0205
RRIRYRPPRLPRPRPRPKQYPRP	-0.409
RRIRPRPPRLPRPRPRPQFLPRP	-0.164
RRIRIRPPRLPRPRPRPYGHPRP	0.0184
RRIRTRPPRLPRPRPRPADGPRP	-0.0563
RRIRSRPPRLPRPRPRPSDMPRP	-0.373
RRIRERPPRLPRPRPRPKNEPRP	-0.315
RRIRWRPPRLPRPRPRPDTTPRP	0.255
RRIRHRPPRLPRPRPRPSKEPRP	-0.0697
RRIRPRPPRLPRPRPRPSYDPRP	-0.526
RRIRSRPPRLPRPRPRPFIRPRP	-0.412
RRIRERPPRLPRPRPRPSFGPRP	0.189
RRIRWRPPRLPRPRPRPPVQPRP	0.952

Sequence	shrunken log2 fold change
RRIRQRPPRLPRPRPRPGFIPRP	-0.408
RRIRKRPPRLPRPRPRPNLEPRP	0.185
RRIRERPPRLPRPRPRPAPSPRP	0.116
RRIRCRPPRLPRPRPRPSFQPRP	-0.384
RRIRQRPPRLPRPRPRPAISPRP	-0.292
RRIRYRPPRLPRPRPRPECDPRP	-0.235
RRIRDRPPRLPRPRPRPYVKPRP	-0.313
RRIRHRPPRLPRPRPRPSLSPRP	-0.619
RRIRKRPPRLPRPRPRPFNGPRP	-0.407
RRIRPRPPRLPRPRPRPVYAPRP	-0.261
RRIRERPPRLPRPRPRPSSEPRP	-0.137
RRIRKRPPRLPRPRPRPKYSPRP	-0.13
RRIRTRPPRLPRPRPRPFCIPRP	-0.361
RRIRERPPRLPRPRPRPVFGPRP	-0.0574
RRIRQRPPRLPRPRPRPQCNPRP	-0.0983
RRIRFRPPRLPRPRPRPEIEPRP	0.0594
RRIRARPPRLPRPRPRPYGIPRP	-0.00196
RRIRIRPPRLPRPRPRPVVQPRP	-1.04
RRIRVRPPRLPRPRPRPEMMPRP	0.0629
RRIRNRPPRLPRPRPRPRVPPRP	-0.134
RRIRARPPRLPRPRPRPNCDPRP	0.476
RRIRVRPPRLPRPRPRPMTCPRP	-0.141
RRIRMRPPRLPRPRPRPIFQPRP	-0.115
RRIRWRPPRLPRPRPRPDFDPRP	0.0791
RRIRTRPPRLPRPRPRPAEKPRP	0.0882
